B1: human glucagon like peptide-1 receptor (hGLP-1R): N63, 82, 115L (protein)
parent chain: MAGAPGPLRLALLLLGMVGRAGPRPQGATVSLWETVQKWREYRRQCQRSLTEDPPPATDLFCNRTFDEYACWPDGEPGSFVNVSCPWYLPWASSVPQGHVYRFCTAEGLWLQKDNSSLPWRDLSECEESKRGERSSPEEQLLFLYIIYTVGYALSFSALVIASAILLGFRHLHCTRNYIHLNLFASFILRALSVFIKDAALKWMYSTAAQQHQWDGLLSYQDSLSCRLVFLLMQYCVAANYYWLLVEGVYLYTLLAFSVLSEQWIFRLYVSIGWGVPLLFVVPWGIVKYLYEDEGCWTRNSNMNYWLIIRLPILFAIGVNFLIFVRVICIVVSKLKANLMCKTDIKCRLAKSTLTLIPLLGTHEVIFAFVMDEHARGTLRFIKLFTELSFTSFQGLMVAILYCFVNNEVQLEFRKSWERWRLEHLHIQRDSSMKPLKCPTSSLSSGATAGSSMYTATCQASCS
B2: human glucagon like peptide-1 receptor (hGLP-1R): tunicamycin (protein)
parent chain: B1 parent chain

Legend:
[1] = total lysate immunoblot, anti-GFP; conditions: glycan lost; control: SP-VSVG WT
[2] = confocal immunofluorescence, GFP and surface anti-hGLP-1R; conditions: glycan lost; control: SP-VSVG WT, untreated
[3] = cell surface ELISA, anti-hGLP-1R, unpermeabilised cells; conditions: glycan lost; control: SP-VSVG WT, untreated

Protein | expression_or_secretion [1] | localisation_or_trafficking [2] | localisation_or_trafficking, percent_of_wt [3]
B1 | no change | abolishes | abolishes
B2 |  | abolishes | abolishes

Reference: publication PMC4344312
